# Data reported in patent publication US20240116985A1, “STAPLED PEPTIDES AND METHODS THEREOF” (priority 2020, published 2024).
# Starred links: 1 amine or outer side, 2 acyl side, 3 side chain; linkers in the order of their positions; H or OH if unused. Positions of bridges follow the written chain, without caps; N, C: chain ends. Non-standard residues stand in square brackets, D forms with d. Groups on a side chain read outwards from the residue. Primed or numbered codes have the meaning given here. *: point of attachment. PyrS2″ = (S)-3-amino-1-((pent-4-en-1-yloxy)carbonyl)pyrrolidine-3-carboxylic acid (stapling residue), C=CCCCOC(=O)N1CC[C@@](N[*:1])(C(=O)[*:2])C1; B5(4) = 2,2-bis(4-pentenyl)glycine = 2-amino-2-(pent-4-en-1-yl)hept-6-enoic acid (stitching residue), C=CCCCC(CCCC=C)(N[*:1])C(=O)[*:2]; B5(5) = 2,2-bis(4-pentenyl)glycine, 2-amino-2-(pent-4-en-1-yl)hept-6-enoic acid (stitching residue), C=CCCCC(CCCC=C)(N[*:1])C(=O)[*:2]; PyrS2 = (S)-3-amino-1-((pent-4-en-1-yloxy)carbonyl)pyrrolidine-3-carboxylic acid, C=CCCCOC(=O)N1CC[C@@](N[*:1])(C(=O)[*:2])C1; B5(27) = 2-amino-2-(pent-4-en-1-yl)hept-6-enoic acid (two alkene side-chain arms), C=CCCCC(CCCC=C)(N[*:1])C(=O)[*:2]; MePpzAsn = (S)-2-amino-4-(4-methylpiperazin-1-yl)-4-oxobutanoic acid, CN1CCN(C(=O)C[C@H](N[*:1])C(=O)[*:2])CC1; F2PipNva = (S)-2-amino-5-(4,4-difluoropiperidin-1-yl)pentanoic acid, O=C([C@H](CCCN1CCC(F)(F)CC1)N[*:1])[*:2]; F2PipAbu = (S)-2-amino-4-(4,4-difluoropiperidin-1-yl)butanoic acid, O=C([C@H](CCN1CCC(F)(F)CC1)N[*:1])[*:2]; MePpzNva = (S)-2-amino-5-(4-methylpiperazin-1-yl)pentanoic acid, CN1CCN(CCC[C@H](N[*:1])C(=O)[*:2])CC1; MePpzAbu = (S)-2-amino-4-(4-methylpiperazin-1-yl)butanoic acid, CN1CCN(CC[C@H](N[*:1])C(=O)[*:2])CC1; 4TriA = (S)-2-amino-3-(1H-1,2,3-triazol-4-yl)propanoic acid, O=C([C@H](Cc1c[nH]nn1)N[*:1])[*:2]; Lithocholoyl = C[C@H](CCC(=O)*)[C@H]1CC[C@H]2[C@@H]3CC[C@@H]4C[C@H](O)CC[C@]4(C)[C@H]3CC[C@]12C; MorphAsn = (S)-2-amino-4-morpholino-4-oxobutanoic acid, O=C(C[C@H](N[*:1])C(=O)[*:2])N1CCOCC1; B5(3) = 2,2-bis(4-pentenyl)glycine (stitching residue), C=CCCCC(CCCC=C)(N[*:1])C(=O)[*:2]; Me3AdamantC = 3,5,7-trimethyladamantane-1-carbonyl, CC12CC3(C)CC(C)(C1)CC(C(=O)*)(C2)C3; MorphAbu = (S)-2-amino-4-morpholinobutanoic acid, O=C([C@H](CCN1CCOCC1)N[*:1])[*:2]; Phe(4-(3-Py)) = N[C@@H](Cc1ccc(-c2cccnc2)cc1)C(=O)O; Nva(5-morpholino) = N[C@@H](CCCN1CCOCC1)C(=O)O; Bta = N[C@@H](Cc1csc2ccccc12)C(=O)O; αAllylPro = C=CC[C@@]1(C(=O)O)CCCN1; tBuAla = CC(C)(C)C[C@H](N)C(=O)O; 3Thi = N[C@@H](Cc1ccsc1)C(=O)O; S8 = C=CCCCCCC[C@](C)(N)C(=O)O; hSer = N[C@@H](CCO)C(=O)O; Nle = CCCC[C@H](N)C(=O)O; PEG2′ = not defined here
# Molecular target: full-length beta-Catenin (Uniprot ID P35222) (Homo sapiens (Human)) (UniProt P35222)
# Test: fluorescence polarization competition; displacement of 5FAM-TCF4(10-53) from full-length beta-catenin
row,Binder,IC50 [nM]
1,"Ac-[αAllylPro]D[tBuAla][B5(5)]DDAK(Lithocholoyl)FL[PyrS2][3Thi][Bta]Q-NH2 (staple 1-4, 4-11) [I-1473]",224
2,"Ac-[αAllylPro]D[tBuAla][B5(4)]DDAK([PEG2′-Lithocholoyl])FL[PyrS2″][3Thi][Bta]Q-NH2 (staple 1-4, 4-11) [I-1474]",41
3,"Ac-[αAllylPro]D[tBuAla][B5(5)]DDAK(Me3AdamantC)FL[PyrS2″][3Thi][Bta]Q-NH2 (staple 1-4, 4-11) [I-1475]",113
4,"Ac-[αAllylPro]D[tBuAla][B5(4)]DDAK([PEG2′-Me3AdamantC])FL[PyrS2″][3Thi][Bta]Q-NH2 (staple 1-4, 4-11) [I-1476]",16
5,"Ac-[αAllylPro]D[tBuAla][B5(5)]DDAAFL[PyrS2″][3Thi][Bta]QK(Lithocholoyl)-NH2 (staple 1-4, 4-11) [I-1477]",148
6,"Ac-[αAllylPro]D[tBuAla][B5(4)]DDAAFL[PyrS2″][3Thi][Bta]QK([PEG2′-Lithocholoyl])-NH2 (staple 1-4, 4-11) [I-1478]",75
7,"Ac-[αAllylPro]D[tBuAla][B5(5)]DDAAFL[PyrS2″][3Thi][Bta]QK(Me3AdamantC)-NH2 (staple 1-4, 4-11) [I-1479]",173
8,"Ac-[αAllylPro]D[tBuAla][B5(3)]DDAAFL[PyrS2″][3Thi][Bta]QK([PEG2′-Me3AdamantC])-NH2 (staple 1-4, 4-11) [I-1480]",37
9,"Ac-[αAllylPro]D[tBuAla][B5(3)]DD[Nva(5-morpholino)]AFL[PyrS2″][3Thi][Bta]Q-NH2 (staple 1-4, 4-11) [I-1481]",7
10,"Ac-[αAllylPro]D[tBuAla][B5(3)]DD[F2PipNva]AFL[PyrS2″][3Thi][Bta]Q-NH2 (staple 1-4, 4-11) [I-1482]",7
11,"Ac-[αAllylPro]D[tBuAla][B5(3)]DD[MorphAsn]AFL[PyrS2″][3Thi][Bta]Q-NH2 (staple 1-4, 4-11) [I-1483]",22
12,"Ac-[αAllylPro]D[tBuAla][B5(3)]DD[MePpzAsn]AFL[PyrS2″][3Thi][Bta]Q-NH2 (staple 1-4, 4-11) [I-1484]",30
13,"Ac-[αAllylPro]D[tBuAla][B5(3)]DDAAF[Nva(5-morpholino)][PyrS2″][3Thi][Bta]Q-NH2 (staple 1-4, 4-11) [I-1485]",7
14,"Ac-[αAllylPro]D[tBuAla][B5(3)]DDAAF[F2PipNva][PyrS2″][3Thi][Bta]Q-NH2 (staple 1-4, 4-11) [I-1486]",5
15,"Ac-[αAllylPro]D[tBuAla][B5(3)]DDAAF[MorphAsn][PyrS2″][3Thi][Bta]Q-NH2 (staple 1-4, 4-11) [I-1487]",7
16,"Ac-[αAllylPro]D[tBuAla][B5(3)]DDAAF[MePpzAsn][PyrS2″][3Thi][Bta]Q-NH2 (staple 1-4, 4-11) [I-1488]",6
17,"Ac-[αAllylPro]D[tBuAla][B5(3)]DD[Phe(4-(3-Py))]AFL[PyrS2″]F[Bta]Q-NH2 (staple 1-4, 4-11) [I-1489]",17
18,"Ac-[αAllylPro]D[tBuAla][B5(3)]DDAAFL[PyrS2″][3Thi][Bta]N-NH2 (staple 1-4, 4-11) [I-1492]",5
19,"Ac-[αAllylPro]D[tBuAla][B5(27)]DDAAFL[PyrS2][3Thi][Bta]T-NH2 (staple 1-4, 4-11) [I-1494]",5
20,"Ac-[αAllylPro]D[tBuAla][B5(27)]DDAAFL[PyrS2][3Thi][Bta]V-NH2 (staple 1-4, 4-11) [I-1495]",24
21,"Ac-[αAllylPro]D[tBuAla][B5(27)]DDAAFL[PyrS2][3Thi][Bta]F-NH2 (staple 1-4, 4-11) [I-1496]",51

row,Binder,IC50 [nM]
1,"Ac-[αAllylPro]D[tBuAla][B5(27)]DDAAFL[PyrS2][3Thi][Bta]W-NH2 (staple 1-4, 4-11) [I-1497]",50
2,"Ac-[αAllylPro]D[tBuAla][B5(27)]DDAAFL[PyrS2][3Thi][Bta][4TriA]-NH2 (staple 1-4, 4-11) [I-1498]",48
3,"Ac-[αAllylPro]D[tBuAla][B5(27)]DDA[Nva(5-morpholino)]FL[PyrS2][3Thi][Bta]Q-NH2 (staple 1-4, 4-11) [I-1501]",46
4,"Ac-[αAllylPro]D[tBuAla][B5(27)]DDA[F2PipNva]FL[PyrS2][3Thi][Bta]Q-NH2 (staple 1-4, 4-11) [I-1502]",34
5,"Ac-[αAllylPro]D[tBuAla][B5(4)]DDA[MePpzNva]FL[PyrS2][3Thi][Bta]Q-NH2 (staple 1-4, 4-11) [I-1503]",38
6,"Ac-[αAllylPro]D[tBuAla][B5(27)]DDA[MorphAbu]FL[PyrS2][3Thi][Bta]Q-NH2 (staple 1-4, 4-11) [I-1504]",46
7,"Ac-[αAllylPro]D[tBuAla][B5(27)]DDA[F2PipAbu]FL[PyrS2][3Thi][Bta]Q-NH2 (staple 1-4, 4-11) [I-1505: Ac-PL3-Asp-Npg-B5-Asp-Asp-Ala-F2PipAbu-Phe-Leu-PyrS2-3Thi-BztA-Gln-NH2]",39
8,"Ac-[αAllylPro]D[tBuAla][B5(4)]DDA[MePpzAbu]FL[PyrS2][3Thi][Bta]Q-NH2 (staple 1-4, 4-11) [I-1506: Ac-PL3-Asp-Npg-B5-Asp-Asp-Ala-MePpzAbu-Phe-Leu-PyrS2-3Thi-BztA-Gln-NH2]",89
9,"Ac-[αAllylPro]D[tBuAla][B5(27)]DDA[MorphAsn]FL[PyrS2][3Thi][Bta]Q-NH2 (staple 1-4, 4-11) [I-1507: Ac-PL3-Asp-Npg-B5-Asp-Asp-Ala-MorphAsn-Phe-Leu-PyrS2-3Thi-BztA-Gln-NH2]",30
10,"Ac-[αAllylPro]D[tBuAla][B5(4)]DDA[MePpzAsn]FL[PyrS2][3Thi][Bta]Q-NH2 (staple 1-4, 4-11) [I-1508: Ac-PL3-Asp-Npg-B5-Asp-Asp-Ala-MePpzAsn-Phe-Leu-PyrS2-3Thi-BztA-Gln-NH2]",87
11,"Ac-[αAllylPro]DF[B5(27)]DDAAFL[PyrS2][3Thi][Bta][hSer]-NH2 (staple 1-4, 4-11) [I-1510: Ac-PL3-Asp-Phe-B5-Asp-Asp-Ala-Ala-Phe-Leu-PyrS2-3Thi-BztA-Hse-NH2]",10
12,"Ac-[αAllylPro]DY[B5(27)]DDAAFL[PyrS2][3Thi][Bta]Q-NH2 (staple 1-4, 4-11) [I-1511: Ac-PL3-Asp-Tyr-B5-Asp-Asp-Ala-Ala-Phe-Leu-PyrS2-3Thi-BztA-Gln-NH2]",5
13,"Ac-[αAllylPro]DY[B5(5)]DDAAFL[PyrS2″][3Thi][Bta][hSer]-NH2 (staple 1-4, 4-11) [I-1512: Ac-PL3-Asp-Tyr-B5-Asp-Asp-Ala-Ala-Phe-Leu-PyrS2-3Thi-BztA-Hse-NH2]",12
14,"Ac-[αAllylPro]DS[B5(5)]DDAAFL[PyrS2″][3Thi][Bta]Q-NH2 (staple 1-4, 4-11) [I-1513: Ac-PL3-Asp-Ser-B5-Asp-Asp-Ala-Ala-Phe-Leu-PyrS2-3Thi-BztA-Gln-NH2]",21
15,"Ac-[αAllylPro]DS[B5(4)]DDAAFL[PyrS2″][3Thi][Bta][hSer]-NH2 (staple 1-4, 4-11) [I-1514: Ac-PL3-Asp-Ser-B5-Asp-Asp-Ala-Ala-Phe-Leu-PyrS2-3Thi-BztA-Hse-NH2]",27
16,"Ac-[αAllylPro]DT[B5(5)]DDAAFL[PyrS2″][3Thi][Bta]Q-NH2 (staple 1-4, 4-11) [I-1515: Ac-PL3-Asp-Thr-B5-Asp-Asp-Ala-Ala-Phe-Leu-PyrS2-3Thi-BztA-Gln-NH2]",24
17,"Ac-[αAllylPro]DT[B5(5)]DDAAFL[PyrS2″][3Thi][Bta][hSer]-NH2 (staple 1-4, 4-11) [I-1516: Ac-PL3-Asp-Thr-B5-Asp-Asp-Ala-Ala-Phe-Leu-PyrS2-3Thi-BztA-Hse-NH2]",30
18,"Ac-[αAllylPro]DN[B5(5)]DDAAFL[PyrS2″][3Thi][Bta]Q-NH2 (staple 1-4, 4-11) [I-1517: Ac-PL3-Asp-Asn-B5-Asp-Asp-Ala-Ala-Phe-Leu-PyrS2-3Thi-BztA-Gln-NH2]",32
19,"Ac-[αAllylPro]DN[B5(5)]DDAAFL[PyrS2″][3Thi][Bta][hSer]-NH2 (staple 1-4, 4-11) [I-1518: Ac-PL3-Asp-Asn-B5-Asp-Asp-Ala-Ala-Phe-Leu-PyrS2-3Thi-BztA-Hse-NH2]",23
20,"Ac-[αAllylPro]D[Nle][B5(5)]DEAAFQ[S8]F[Bta]Q-NH2 (staple 1-4, 4-11; also: staple isomer, earlier eluting HPLC peak) [I-1521: Ac-PL3-Asp-nLeu-B5-Asp-Glu-Ala-Ala-Phe-Gln-S8-Phe-BztA-Gln-NH2]",16
21,"Ac-[αAllylPro]D[Nle][B5(5)]DEAAFQ[S8]F[Bta]Q-NH2 (staple 1-4, 4-11) [I-1522: Ac-PL3-Asp-nLeu-B5-Asp-Glu-Ala-Ala-Phe-Gln-S8-Phe-BztA-Gln-NH2]",6
